Read-outs that look alike come from different tables or passages of the source. Where a SMILES comes first, the peptide text is derived from it. Where no end group is shown, it is not given here. Side-chain parts run from the residue outwards. [ ]: non-standard residue; d: D form. The star is where a group is joined. DOTA = O=C(O)CN1CCN(CC(=O)O)CCN(CC(=O)*)CCN(CC(=O)O)CC1; Palmitoyl = CCCCCCCCCCCCCCCC(=O)*
Assays:
[1] = Stability of radiolabeled conjugates in buffer (radiochemical purity over time); type: physicochemical; details: NH4-acetate buffer pH 5.2, ethanol, room temperature
Method: The stability of ^177Lu/^68Ga-labeled DOTA-conjugated peptides in ammonium acetate buffer (0.4 M, pH 5.2) and sodium acetate buffer (0.2 M, pH 4-4.5) was assessed by determining the radiochemical purity (RCP) of each radiolabeled conjugate at different time points (0, 1, 2, 4, and 24 h for ^177Lu-complexes and at 0, 1 and 2 h for ^68Ga-complexes) at room temperature. For this, an aliquot of labeling solution was stored at room temperature. RP-HPLC injections were consecutively performed at the desired time points.
Radiolysis-induced instability of [^177Lu]Lu-labeled DOTA-conjugated peptides over time was tracked by determining the radiochemical purity (Table 3). Results are means±standard deviation from a minimum of two separate experiments.

[2] = Lipophilicity, shake-flask method (n-octanol/PBS pH 7.4); type: physicochemical
Method: The hydrophilic/lipophilic character of the ^177Lu/^68Ga-labeled conjugates was determined by the “shake-flask” method. To a pre-saturated solution containing 500 μL of n-octanol and 500 μL of phosphate-buffered saline (PBS) at pH 7.4, 10 μL of 1 picomol ^177Lu/^68Ga-labeled conjugates was added. The solutions were vortexed for 1 h to reach equilibrium and then centrifuged (3000 rpm) for 10 min. Hundred μl of the sample was removed from each phase and measured in a γ-counter. The partition coefficient was calculated as the average of the logarithmic values (n=3) of the ratio between the radioactivity in the organic and the PBS phase. Results are means±standard deviation from a minimum of two separate experiments. ^177Lu/^68Ga-labeled Pentixather, which is a known CXCR4-directed endoradiotherapeutic agent, is used as reference molecule.

[3] = test system: CXCL12-induced AKT signaling; assay: ERK/AKT signaling assay in SupT1 cells: AKT phosphorylation; type: cell-based; details: 10 μM
Outline: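 SupT1 cells in 1% FCS medium preincubated 15 min at 37 °C with compound, then stimulated 2 min with CXCL12 (100 ng/ml final). PFA-fixed, methanol-permeabilized cells stained for phospho-ERK1/2 (Tyr204/Tyr187) or phospho-AKT (Ser473) and read by flow cytometry; two or three independent experiments in triplicate.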

[4] = test system: CXCL12-induced ERK signaling; assay: ERK/AKT signaling assay in SupT1 cells: ERK phosphorylation; type: cell-based; details: 1 μM
Method: Third, the activity of the claimed EPI-X4 derivatives was tested by the effect on CXCL12/CXCR4-mediated ERK (Extracellular-signal Regulated Kinases) and AKT (a serine/threonine-protein kinase) signaling (FIG. 3). In that assay CXCR4 expressing cells are stimulated with the CXCR4 chemokine-ligand CXCL12, which subsequently leads to phosphorylation of ERK and AKT. Preincubation of cells with CXCR4-antagonists blocks those pathways. […] Two or three independent experiments were carried out in triplicates for each peptide in each assay. The error bars refer to the standard deviation.
ERK/AKT signaling assay. CXCL12 induced ERK and AKT phosphorylation was determined in SupT1 cells. For this, 100,000 cells were seeded per well in a 96-V well plate in 100 μl medium supplemented with 1% FCS. Cells were incubated for 2 hours at 37° C. before 5 μl of compounds were added. After 15 min incubation at 37° C. cells were stimulated by adding 5 μl CXCL12 diluted in PBS to reach a final concentration of 100 ng/ml. Cells were further incubated for 2 min before the reaction was stopped by adding 20 μl of 10% PFA. Cells were fixed for 15 min at 4° C. before PFA was removed and cells permeabilized by adding 100 μl ice cold methanol. After 15 min at 4° C. the methanol was removed, cells were washed and 30 μl primary antibody was added (phospho-p44/42 MAPK (Erk1) (Tyr204)/(Erk2) (Tyr187) (D1H6G) mouse mAb #5726; phosphor-Akt (Ser473) (193H12) rabbit mAb #4058 Cell Signaling) for 1 hour at 4° C. After the antibody was removed and cells were washed secondary antibody was added for 30 min. Cells were washed afterwards and subsequently analyzed by flow cytometry.

[5] = Functional stability assay in human plasma
Outline: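 EPI-X4 derivatives at 20 μM final in pooled human plasma or whole blood (EDTA), incubated at 37 °C with shaking for 2 or 8 h. Residual activity was measured by 12G5-APC antibody competition on CXCR4 and compared with a non-incubated t=0 sample. Blood samples were centrifuged to remove cells before the competition assay.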

[6] = Stability assay in human S9 liver fractions; details: with cofactors
Method: Further, the stability of peptides in human S9 liver fractions (in the presence of cofactors) was tested (FIG. 12). […] To simulate and predict hepatic metabolic clearance, peptides were added to human S9 liver fractions. […] For each peptide, three independent experiments were performed.
Stability assay in human S9 liver fractions. Pooled human liver S9 fractions were obtained from Thermo Fisher Scientific at a total protein concentration of 20 mg/ml. Fractions were stored in 25 μl aliquots at −80° C. For stability experiments, they were diluted to a final concentration of 0.5 mg/ml in Tris buffer. Cofactors (or buffer) were added immediately before start of the experiment (NADPH: 1 mM, UDPGA: 0.5 mM, GSH: 2.5 mM, PAPS: 0.05 mg/ml, Sigma Aldrich). The reaction was started by adding peptides or compounds at a concentration of 20 μM to the mixture and gentle agitation at 37° C. Determination of enzymatic stability was performed as described for plasma.

[7] = test system: CXCR4-tropic X4-HIV-1 (NL4-3); type: cell-based; details: CXCR4-tropic X4- (NL4-3)
Method: The activity of the peptides was estimated by different assays.
The X4-HIV inhibition assay is designed to measure the activity of the inventive peptides by their efficiency of blocking the infection of tissue culture cells by CXCR4-tropic HIV-1 variants.
HIV-1 inhibition assay. […] For infection of TZM-bl cells in presence of inhibitors, cells were seeded at a density of 1×10^5 cells/ml in 70 μl DMEM containing 2.5% FCS. Compounds were diluted in PBS and 10 μl were added. After 15 minutes of incubation cells were inoculated with 20 μl of diluted virus. Infection rates were determined three days later using Gal-Screen system (Applied Biosystems).

[8] = test system: CXCL12 induced Ca2+-signalling; assay: Ca++ signaling in BCR-ABL-transformed murine bone marrow cells; type: cell-based; details: 1 μM
Method: Fifth, it was shown that the peptide derivatives inhibit calcium-signaling. CXCL12 stimulation of CXCR4 expressing B-cells leads to a strong calcium-release. In the presence of CXCR4 antagonists this response is reduced.
For calcium measurement, 1×10^6 BCR-ABL-transformed murine bone marrow cells were incubated with 5 μg/mL of Indo-1 (Molecular Probes) and 0.5 μg/mL of pluronic F-127 (Molecular Probes) in Iscove's medium supplemented with 1% FCS (Pan Biotech) at 37° C. for 45 min. Cells were then washed by centrifugation and the cell pellets were resuspended in Iscove's medium with 1% FCS and treated with the EPI-X4 derivatives (1 μM or 0.5 μM) for 10 minutes at room temperature. Cells were pre-warmed for 5 minutes at 37° C. Calcium flux was assessed by FACS measurement at BD LSR Fortessa. After 30 seconds of baseline recording, CXCR4-dependent calcium signaling was determined by stimulating with 100 ng/ml of mouse SDF-1a (PeproTech).

[9] = test system: CXCL12 induced migration of T-cells; assay: Migration assay (transwell, Jurkat cells); type: cell-based
Method: For each peptide, three independent experiments were performed. The error bars refer to the standard deviation.
Migration assay. Migration assays were performed using 96-well transwell assay plates (Corning Incorporated, Kennebunk, Me., USA) with 5 μm polycarbonate filters. […] Next, 75 μL (0.5×10^5 cells) of Jurkat cells (in assay buffer), together with/without the compounds, were added into the upper chambers. After 4 h at 37° C. (5% CO2), 100 μL of the lower chambers were transferred to a fresh 96 V-well plate and analyzed with Cell-Titer-Glo® assay (Promega, Madison, Wis., USA). The percentage of migrated cells was calculated as described by Balabanian et al. (2005). In order to obtain the relative migration in %, the percentage of migrated cells were normalized to the CXCL12-only control.

[10] = mice, i.v. tail vein, 4 hours post injection
[11] = target: CXC chemokine receptor type 4 (CXCR4) (human, UniProt P61073 1-352); assay: cell-based or functional assay
[12] = target: T1, CXC chemokine receptor type 4 (CXCR4) (human, UniProt P61073 1-352); assay: competition
T1 chain: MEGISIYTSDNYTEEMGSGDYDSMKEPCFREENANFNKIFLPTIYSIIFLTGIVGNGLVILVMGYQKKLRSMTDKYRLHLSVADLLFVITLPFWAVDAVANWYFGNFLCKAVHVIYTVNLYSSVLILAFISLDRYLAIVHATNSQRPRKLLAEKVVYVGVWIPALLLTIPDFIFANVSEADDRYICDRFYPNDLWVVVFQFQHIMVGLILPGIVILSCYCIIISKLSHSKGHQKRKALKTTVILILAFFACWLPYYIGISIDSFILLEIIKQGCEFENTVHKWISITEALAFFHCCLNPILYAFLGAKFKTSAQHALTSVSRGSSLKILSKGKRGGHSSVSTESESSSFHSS

[13] = target: T1, CXC chemokine receptor type 4 (CXCR4); assay: competition
[14] = target: T1, CXC chemokine receptor type 4 (CXCR4); assay: competition

Molecule “[^177Lu]Lu-DOTA-K-JM#21: ^177Lu-labeled DOTA-K-JM #21 (SEQ ID NO.: 101) (ILRWSRKLPCVSK(DOTA); also: 177Lu chelated)” has a Radiochemical purity ([1]; time point 1 h) of 93 ± 3%, a Radiochemical purity ([1]; time point 2 h) of 92 ± 6% and a Radiochemical purity ([1]; time point 4 h) of 90 ± 7%. The Radiochemical purity ([1]; time point 24 h) was 62 ± 13% and the “log DO/PBS pH7.4” value [2] was −1.91 ± 0.24.

In the case of `CC[C@H](C)[C@H](N)C(=O)N[C@H](C(=O)N[C@@H](CCCNC(=N)N)C(=O)N[C@@H](Cc1c[nH]c2ccccc12)C(=O)N[C@@H](CO)C(=O)N[C@@H](CCCCN)C(=O)N[C@@H](CCCCN)C(=O)N[C@H](C(=O)N1CCC[C@H]1C(=O)N[C@@H](CS)C(=O)N[C@H](C(=O)N[C@@H](CO)C(=O)O)C(C)C)C(C)C)C(C)C` [WSC02, reference compound] (H-IVRWSKKVPCVS-OH; C-terminus assumed), the “reduction of CXCL12-induced AKT signaling” value [3] is reported as “about 50%”, the “reduction of CXCL12-induced ERK signaling” value [4] is reported as 20% and the “remaining (relative) activity after 2 hours of plasma incubation” value ([5]; human plasma, 2 hours) is reported as “completely inactive”. The “remaining activity in human S9 liver fractions after 2 hours” value [6] was “readily inactivated by liver enzymes”.

Molecule “[^177Lu]Lu-DOTA-JM#118: ^177Lu-labeled DOTA-JM #118 (SEQ ID NO.: 166) (ILRWSRK(DOTA)-NH2; also: 177Lu complex of DOTA)” has a Radiochemical purity ([1]; time point 0 h) of 99 ± 0%, a Radiochemical purity ([1]; time point 1 h) of 98 ± 0% and a Radiochemical purity ([1]; time point 2 h) of 97 ± 1%. For the same molecule, the Radiochemical purity ([1]; time point 4 h) was 95 ± 1%, the Radiochemical purity ([1]; time point 24 h) was 80 ± 2% and the Radiochemical purity ([1]; time point 24 h, listed as [^177Lu]Lu-DOTA-JM #118) was 80±2%. The “log DO/PBS pH7.4” value [2] was −3.12 ± 0.43.

With `CC[C@@H](C)[C@@H](N)C(=O)N[C@@H](CC(C)C)C(=O)N[C@@H](CCCNC(=N)N)C(=O)N[C@@H](Cc1c[nH]c2ccccc12)C(=O)N[C@@H](CO)C(=O)N[C@@H](CCCNC(=N)N)C(=O)N[C@@H](CCCCN)C(N)=O` [JM #173, d-ILRWSRK-NH2] (H-[dI]LRWSRK-NH2) the “remaining (relative) activity after 8 hours of plasma incubation” value ([5]; human plasma, 8 hours) was 100%, the “functional stability in human plasma (in words)” value ([5]; human, plasma) was “completely resistant to plasma enzymes” and the “remaining activity in human S9 liver fractions after 8 hours” value [6] was “about 14%”.

“[^177Lu]Lu-DOTA-K-JM#122: ^177Lu-labeled DOTA-K-JM #122 (SEQ ID NO.: 102) (ILRWSRKLPSVSK(DOTA); also: 177Lu complex of DOTA)” showed a Radiochemical purity ([1]; time point 0 h) of 97 ± 0%, a Radiochemical purity ([1]; time point 1 h) of 97 ± 0% and a Radiochemical purity ([1]; time point 2 h) of 96 ± 1%. For the same molecule, the Radiochemical purity ([1]; time point 4 h) was 96 ± 1%, the Radiochemical purity ([1]; time point 24 h) was 78 ± 1% and the Radiochemical purity ([1]; time point 24 h, listed as [^177Lu]Lu-DOTA-K-JM #207) was 78±1%. The “log DO/PBS pH7.4” value [2] was −3.23 ± 0.23 and the “log DO/PBS pH7.4” value ([2]; listed as [^177Lu]Lu-DOTA-K-JM #122) was −3.23±0.23.

With `CCCCCCCCCCCCCCCC(=O)N[C@@H](CCC(=O)O)C(=O)NCCCC[C@H](NC(=O)[C@H](CCCNC(=N)N)NC(=O)[C@H](CO)NC(=O)[C@H](Cc1c[nH]c2ccccc12)NC(=O)[C@H](CCCNC(=N)N)NC(=O)[C@H](CC(C)C)NC(=O)[C@@H](N)[C@@H](C)CC)C(N)=O` [JM #192, ILRWSRK(Glu-Pal)-NH2] (H-ILRWSRK([Glu-Palmitoyl])-NH2; N-terminus assumed) the IC50 [7] was 2 nM, the “reduction of CXCL12 induced calcium-signaling” value [8] was “almost completely blocked calcium-signaling” and the “inhibition of CXCL12 induced migration of T-cells (in words)” value [9] was “high activity”. For the same molecule, the “remaining activity in plasma in vivo 4 hours post injection” value [10] was “completely lost”, the “remaining activity in human S9 liver fractions after 2 hours” value [6] was “faster inactivation” and the “remaining activity in human S9 liver fractions after 8 hours” value [6] was “more rapidly degraded compared to their N-terminally modified variants”.

For ILRWSRKLPCVS [JM#21], the “fold effectiveness against WSC02, AKT signaling” value [11] was roughly 10 fold, the “fold more effective X4-HIV-1 inhibition than EPI-X4” value [11] was roughly 100 fold and the IC50 [12] was 211 nM. The IC50 [13] was 358 nM and the IC50 [14] was 147 nM.
